This is an account of results in US20140120091A1 (University of Washington, published 2014).

The target of assay [1] is T1, recombinant human CD40L (Peprotech, Catalog #310-02) (human, UniProt P29965 113-261).
T1 construct: Bought reagent; also called rCD40L; immobilized CD40L
T1 sequence (looked up): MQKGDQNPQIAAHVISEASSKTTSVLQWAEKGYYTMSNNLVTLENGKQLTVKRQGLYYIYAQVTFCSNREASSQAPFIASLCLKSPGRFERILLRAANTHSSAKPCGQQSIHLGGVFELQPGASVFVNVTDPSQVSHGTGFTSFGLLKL
As to the kind of experiment: CD40L antigen binding ELISA normalised to IgG sandwich ELISA, COS supernatants. The protocol: Coated plates were washed twice in wash buffer: (PBS/0.05% Tween-20/0.01% Kathon), and blocked overnight at 4° C. in 200 ul/well PBS/2.5% BSA. Blocked plates were washed three times in wash buffer, and serial dilutions of each culture supernatant in (D-PBS, 0.2% BSA) added to successive wells in each plate: (20×, 40×, 80×, and 160× of each supernatant). Supernatant dilutions were incubated overnight at 4° C. Plates were washed three times in wash buffer, then incubated with HRP (horseradish peroxidase) conjugated goat anti-human IgG (Fc specific) (Catalog #109-036-008, Jackson Immunoresearch, West Grove, Pa.) at a 1:7,500 dilution in PBS for 1-2 hours at room temperature. Plates were washed 4-5 times in wash buffer, then 80 ul/well TMB Sureblue peroxidase substrate was added (Catalog #52-00-02, KPL Laboratories, Gaithersburg, Md.). Color was allowed to develop for 5-15 minutes, and reactions stopped by addition of 80 ul/well 1 N HCL. Plates were read using a Biotek SYNERGY® 2 (Biotek Instruments, Winooski, Vt.) plate reader at […], and data analyzed with Gen5 v2 software.
Background: ELISA stands for enzyme-linked immunosorbent assay.

The target in assay [2] is T2, recombinant human PCSK9-his6 (AcroBiosystems, Catalog # PC9-H5223) (human, UniProt Q8NBP7 31-692).
T2 construct: Bought reagent; also called PCSK9-his6 antigen; PCSK9-his 6 antigen; not shown: his6 tag
The experiment in a line: PCSK9 antigen binding ELISA, fusion protein immobilized, PCSK9-his6 in solution, HRP anti-his6 detection.

Assay [3] deals with T3, human CD40 ligand (CD40L, CD154) expressed on human Jurkat cells (human, UniProt P29965 1-261).
T3 construct: whole, on cells; also called CD40L on Jurkat cells; CD154 (CD40L) expressed on the surface of Jurkat cells
T3 sequence (looked up): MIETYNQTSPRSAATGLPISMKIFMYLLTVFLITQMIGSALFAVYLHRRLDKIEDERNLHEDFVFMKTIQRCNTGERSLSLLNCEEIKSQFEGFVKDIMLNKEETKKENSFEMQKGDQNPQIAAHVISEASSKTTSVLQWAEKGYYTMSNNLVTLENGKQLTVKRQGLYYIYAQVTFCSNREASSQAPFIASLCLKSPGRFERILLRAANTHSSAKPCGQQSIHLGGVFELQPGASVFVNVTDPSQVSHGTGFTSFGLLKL
As to the kind of experiment: flow cytometry, serial dilutions of purified fusion protein on Jurkat cells, AF647 goat anti-human IgG detection. (In general: A flow cytometer gives signals particle by particle.)

Residue numbers refer to the chain shown, from its start. Numbers in names are those of the source.

T2 sequence (Q8NBP7 31-692 limits assumed): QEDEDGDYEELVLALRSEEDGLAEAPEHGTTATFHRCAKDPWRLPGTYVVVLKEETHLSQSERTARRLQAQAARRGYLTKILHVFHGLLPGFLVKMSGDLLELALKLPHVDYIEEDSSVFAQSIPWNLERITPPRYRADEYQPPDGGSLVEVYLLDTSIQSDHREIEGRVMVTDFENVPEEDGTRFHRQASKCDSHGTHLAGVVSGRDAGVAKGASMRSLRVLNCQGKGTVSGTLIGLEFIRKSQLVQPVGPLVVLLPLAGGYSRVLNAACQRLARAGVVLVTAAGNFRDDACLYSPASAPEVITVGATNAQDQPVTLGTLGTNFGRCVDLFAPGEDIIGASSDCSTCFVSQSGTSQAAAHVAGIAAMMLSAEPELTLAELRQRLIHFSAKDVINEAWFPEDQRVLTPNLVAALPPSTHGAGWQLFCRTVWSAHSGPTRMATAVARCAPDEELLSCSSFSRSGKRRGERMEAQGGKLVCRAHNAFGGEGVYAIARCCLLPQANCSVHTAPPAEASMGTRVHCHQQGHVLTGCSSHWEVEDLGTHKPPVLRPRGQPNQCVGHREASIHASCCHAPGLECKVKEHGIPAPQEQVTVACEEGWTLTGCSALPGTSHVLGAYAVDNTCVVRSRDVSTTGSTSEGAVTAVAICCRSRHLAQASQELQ

B1: CD40 EC-Ig fusion protein, mutant E64S K81H L121P (Fc fusion)
chain: EPPTACREKQYLINSQCCSLCQPGQKLVSDCTEFTETECLPCGSSEFLDTWNRETHCHQHHYCDPNLGLRVQQKGTSETDTICTCEEGWHCTSEACESCVPHRSCSPGFGVKQIATGVSDTICEPCPVGFFSNVSSAFEKCHPWTSCETKDLVVQQAGTNKTDVVCGP
notes: COS7 culture supernatant; not shown: human IgG Fc tail
For the molecule B1, the binding result in assay [1] is “binds”.

B2: CD40 EC-Ig fusion protein, mutant E64Y K81T P85Y (Fc fusion)
chain: B1 chain with S44Y, H61T, P65Y, P101L
notes: COS7 culture supernatant; also called triple mutant E64Y K81T P85Y; not shown: human IgG Fc tail
Turning to B2, in assay [1], the binding result was “binds”.

B3: hCD40-4s EC-mthIgG (Fc fusion)
chain: EPPTACREKQYLINSQCCSLCQPGQKLVSDCTEFTETECLPCGESEFLDTWNRETHCHQHKYCDPNLGLRVQQKGTSETDTICTCEEGWHCTSEACESCVLHRSCSPGFGVKQIATGVSDTICEPCPVGFFSNVSSAFEKCHPWTSCETKDLVVQQAGTNKTDVVCGPDLSGGGGSGGGGSGGGGSGGGGSTGLEPKSSDKTHTSPPSPAPELLGGSSVFLFPPKPKDTLMISRTPEVTCVVVDVSHEDPEVKFNWYVDGVEVHNAKTKPREEQYNSTYRVVSVLTVLHQDWLNGKEYKCKVSNKALPASIEKTISKAKGQPREPQVYTLPPSRDELTKNQVSLTCLVKGFYPSDIAVEWESNGQPENNYKTTPPVLDSDGSFFLYSKLTVDKSRWQQGNVFSCSVMHEALHNHYTQKSLSLSPGK
notes: also called human (h)CD40-SSSH-mthIgG1; hCD40mthIgG
In the case of B3, the binding result in assay [2] is on record as “no binding”; in assay [3], “binds”.
